Patent US11628159B2, “Cell-protective compounds and their use” (ETH ZURICH, priority 2017, dated 2023)

Target: T1, GRK2 (Homo sapiens, UniProt P25098)
T1 construct: fused on or other part: hexahistidine tag
T1 sequence (P25098 1-669 limits assumed): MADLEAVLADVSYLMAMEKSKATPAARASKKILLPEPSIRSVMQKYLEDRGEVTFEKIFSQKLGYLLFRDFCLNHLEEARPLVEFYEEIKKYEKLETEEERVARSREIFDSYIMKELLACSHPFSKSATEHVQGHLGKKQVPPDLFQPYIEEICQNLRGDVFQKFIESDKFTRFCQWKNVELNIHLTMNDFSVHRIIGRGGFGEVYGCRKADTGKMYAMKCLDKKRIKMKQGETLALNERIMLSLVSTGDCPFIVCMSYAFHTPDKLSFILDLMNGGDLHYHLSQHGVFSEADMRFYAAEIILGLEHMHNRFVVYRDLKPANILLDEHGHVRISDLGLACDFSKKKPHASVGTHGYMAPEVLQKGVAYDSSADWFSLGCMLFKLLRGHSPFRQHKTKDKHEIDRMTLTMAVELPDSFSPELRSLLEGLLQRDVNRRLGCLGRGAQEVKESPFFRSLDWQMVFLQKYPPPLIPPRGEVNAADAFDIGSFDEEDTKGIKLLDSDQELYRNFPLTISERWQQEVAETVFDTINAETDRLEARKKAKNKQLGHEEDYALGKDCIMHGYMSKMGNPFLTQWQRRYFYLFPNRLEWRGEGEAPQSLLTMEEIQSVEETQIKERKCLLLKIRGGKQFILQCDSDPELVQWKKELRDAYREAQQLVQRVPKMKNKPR
Test: In vitro phosphorylation assay: GRK2-mediated phosphorylation of phosducin
Type: biochemical
Settings: n=6-7; read-out: IC50, inhibition of GRK2-induced phosducin phosphorylation
Text: Recombinant human GRK2 protein and GRK2-S670A protein was expressed in and purified from Spodoptera frugiperda (Sf9) cells by the baculoviral expression system. The cDNAs encoding hexahistidine-tagged human GRK2 (ADRBK1) GRK2-S670A were subcloned into the pFastBac1 expression plasmid (INVITROGEN™, THERMO FISHER SCIENTIFIC®, Waltham, Mass., USA) using the Sal I/Hind III restriction sites, recombinant baculovirus was generated by the Bac-To-Bac Baculovirus expression system (THERMO FISHER SCIENTIFIC®, Waltham, Mass., USA). Sf9 cells were infected with recombinant baculoviruses at an MOI of 2-3, 48 h after infection cells were harvested by centrifugation, lysed with lysis buffer (300 mM NaCl, 50 mM HEPES, pH 7.5 supplemented with 1% NP40, 1 mM PMSF and protease inhibitor cocktail) and applied to Ni-NTA chromatography. After overnight incubation at 4° C., unbound proteins were removed by washing with lysis buffer (20× column volumes) followed by 1× column volume of 30 mM imidazole-containing lysis buffer. Bound GRK2 was eluted by 300 mM imidazole in lysis buffer, desalted by PD10 column chromatograpy, supplemented with 20% glycerol and stored at −80° C. for further use. […]

B1: RKIP: raf kinase inhibitor protein, a dual-specific GRK2 and Raf kinase inhibitor (protein, UniProt P30086 2-187, looked up)
Phosphatidylethanolamine-bindi …: PVDLSKWSGPLSLQEVDEQPQHPLHVTYAGAAVDELGKVLTPTQVKNRPTSISWDGLDSGKLYTLVLTDPDAPSRKDPKYREWHHFLVVNMKGNDISSGTVLSDYVGSGPPKGTGLHRYVWLVYEQDRPLKCDEPILSNRSGDHRGKFKVASFRKKYELRAPVAGTCYQAEWDDYVPKLYEQLSGK
B1 showed an IC50 of 0.95 µM.
